{"source": "paper PMC9482650", "about": "“Quantitative fragmentomics allow affinity mapping of interactomes” (Nature Communications, 2022)", "data": [{"target": "T1, LNX2_3, Q8N448", "T1 sequence (Q8N448 463-564, limits assumed, looked up)": "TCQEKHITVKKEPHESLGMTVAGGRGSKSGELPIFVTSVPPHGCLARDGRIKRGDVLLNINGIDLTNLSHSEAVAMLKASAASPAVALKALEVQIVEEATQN", "assay": "holdup assay", "design": "key: below the threshold = too weak to quantify, mostly under pKd 3.1 to 4", "details": "plain residues with an end cap or a label only (N-terminal biotin on a linker: ado-ado)", "values": [{"binder": "YNNCLEILRV", "note": "[DCAF7, P61962]", "pKd": "below the threshold"}]}, {"target": "PTPN3, P26045", "sequence (P26045 505-587)": "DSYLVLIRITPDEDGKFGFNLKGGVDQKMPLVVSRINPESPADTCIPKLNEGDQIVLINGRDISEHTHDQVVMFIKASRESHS", "assay": "holdup assay", "design": "key: below the threshold = too weak to quantify, mostly under pKd 3.1 to 4", "details": "plain residues with an end cap or a label only (N-terminal biotin on a linker: ado-ado)", "values": [{"binder": "YNNCLEILRV", "note": "[DCAF7, P61962]", "pKd": "below the threshold"}]}, {"target": "T2, SHANK1, Q9Y566", "T2 sequence (Q9Y566 658-767, limits assumed, looked up)": "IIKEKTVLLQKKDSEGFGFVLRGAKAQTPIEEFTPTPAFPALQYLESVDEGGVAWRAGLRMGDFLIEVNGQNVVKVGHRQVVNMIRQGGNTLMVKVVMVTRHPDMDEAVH", "assay": "holdup assay", "design": "key: below the threshold = too weak to quantify, mostly under pKd 3.1 to 4", "details": "plain residues with an end cap or a label only (N-terminal biotin on a linker: ado-ado)", "values": [{"binder": "YNNCLEILRV", "note": "[DCAF7, P61962]", "pKd": "below the threshold"}]}, {"target": "Inadl_2, Q8NI35", "sequence (Q8NI35 238-335)": "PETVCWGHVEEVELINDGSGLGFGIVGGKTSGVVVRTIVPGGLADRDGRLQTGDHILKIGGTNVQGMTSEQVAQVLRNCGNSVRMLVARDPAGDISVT", "assay": "holdup assay", "design": "key: below the threshold = too weak to quantify, mostly under pKd 3.1 to 4", "details": "plain residues with an end cap or a label only (N-terminal biotin on a linker: ado-ado)", "values": [{"binder": "YNNCLEILRV", "note": "[DCAF7, P61962]", "pKd": 3.65}]}, {"target": "T3, LRRC7, Q96NW7", "T3 sequence (Q96NW7 1440-1537, limits assumed, looked up)": "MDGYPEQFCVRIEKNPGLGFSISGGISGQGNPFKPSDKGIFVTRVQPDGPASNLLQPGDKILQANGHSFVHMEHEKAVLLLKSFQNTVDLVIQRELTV", "assay": "holdup assay", "design": "key: below the threshold = too weak to quantify, mostly under pKd 3.1 to 4", "details": "plain residues with an end cap or a label only (N-terminal biotin on a linker: ado-ado)", "values": [{"binder": "YNNCLEILRV", "note": "[DCAF7, P61962]", "pKd": "below the threshold"}]}, {"target": "PDLIM1, O00151", "sequence (O00151 1-87)": "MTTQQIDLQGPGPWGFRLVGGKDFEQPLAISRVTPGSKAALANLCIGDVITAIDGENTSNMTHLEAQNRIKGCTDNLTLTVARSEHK", "assay": "holdup assay", "design": "key: below the threshold = too weak to quantify, mostly under pKd 3.1 to 4", "details": "plain residues with an end cap or a label only (N-terminal biotin on a linker: ado-ado)", "values": [{"binder": "YNNCLEILRV", "note": "[DCAF7, P61962]", "pKd": "below the threshold"}]}, {"target": "T4, APBA3_1, O96018", "T4 sequence (O96018 389-490, limits assumed, looked up)": "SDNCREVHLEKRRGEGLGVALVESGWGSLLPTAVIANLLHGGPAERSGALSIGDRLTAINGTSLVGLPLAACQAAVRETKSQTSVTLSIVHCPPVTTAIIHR", "assay": "holdup assay", "design": "key: below the threshold = too weak to quantify, mostly under pKd 3.1 to 4", "details": "plain residues with an end cap or a label only (N-terminal biotin on a linker: ado-ado)", "values": [{"binder": "YNNCLEILRV", "note": "[DCAF7, P61962]", "pKd": "below the threshold"}]}, {"target": "NHERF4_2, Q86UT5", "sequence (Q86UT5 220-308)": "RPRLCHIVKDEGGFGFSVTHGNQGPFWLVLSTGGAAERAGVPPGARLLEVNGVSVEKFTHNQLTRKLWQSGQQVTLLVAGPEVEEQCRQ", "assay": "holdup assay", "design": "key: below the threshold = too weak to quantify, mostly under pKd 3.1 to 4", "details": "plain residues with an end cap or a label only (N-terminal biotin on a linker: ado-ado)", "values": [{"binder": "YNNCLEILRV", "note": "[DCAF7, P61962]", "pKd": "below the threshold"}]}, {"target": "DLG2_2, Q15700", "sequence (Q15700 189-283)": "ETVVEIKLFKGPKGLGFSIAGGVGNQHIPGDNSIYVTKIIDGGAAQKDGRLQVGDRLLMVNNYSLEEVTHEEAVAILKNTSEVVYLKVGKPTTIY", "assay": "holdup assay", "design": "key: below the threshold = too weak to quantify, mostly under pKd 3.1 to 4", "details": "plain residues with an end cap or a label only (N-terminal biotin on a linker: ado-ado)", "values": [{"binder": "YNNCLEILRV", "note": "[DCAF7, P61962]", "pKd": "below the threshold"}]}, {"target": "GRID2IP_1, A4D2P6", "sequence (A4D2P6 1-87)": "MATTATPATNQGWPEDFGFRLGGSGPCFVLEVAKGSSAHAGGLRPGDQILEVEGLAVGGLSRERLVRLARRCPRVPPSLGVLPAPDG", "assay": "holdup assay", "design": "key: below the threshold = too weak to quantify, mostly under pKd 3.1 to 4", "details": "plain residues with an end cap or a label only (N-terminal biotin on a linker: ado-ado)", "values": [{"binder": "YNNCLEILRV", "note": "[DCAF7, P61962]", "pKd": "below the threshold"}]}, {"target": "MAGI2_4, Q86UL8", "sequence (Q86UL8 772-865)": "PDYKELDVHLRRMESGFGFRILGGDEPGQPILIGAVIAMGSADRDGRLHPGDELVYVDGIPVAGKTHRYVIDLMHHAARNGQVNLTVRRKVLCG", "assay": "holdup assay", "design": "key: below the threshold = too weak to quantify, mostly under pKd 3.1 to 4", "details": "plain residues with an end cap or a label only (N-terminal biotin on a linker: ado-ado)", "values": [{"binder": "YNNCLEILRV", "note": "[DCAF7, P61962]", "pKd": "below the threshold"}]}, {"target": "Inadl_4, Q8NI35", "sequence (Q8NI35 547-651)": "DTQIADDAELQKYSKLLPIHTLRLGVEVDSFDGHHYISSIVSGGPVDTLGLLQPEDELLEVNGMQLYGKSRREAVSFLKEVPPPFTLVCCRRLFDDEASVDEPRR", "assay": "holdup assay", "design": "key: below the threshold = too weak to quantify, mostly under pKd 3.1 to 4", "details": "plain residues with an end cap or a label only (N-terminal biotin on a linker: ado-ado)", "values": [{"binder": "YNNCLEILRV", "note": "[DCAF7, P61962]", "pKd": "below the threshold"}]}, {"target": "MAGI3_2, Q5TCQ9", "sequence (Q5TCQ9 398-503)": "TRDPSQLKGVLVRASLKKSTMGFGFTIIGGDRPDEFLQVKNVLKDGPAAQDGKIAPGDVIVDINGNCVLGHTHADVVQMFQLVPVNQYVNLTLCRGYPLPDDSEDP", "assay": "holdup assay", "design": "key: below the threshold = too weak to quantify, mostly under pKd 3.1 to 4", "details": "plain residues with an end cap or a label only (N-terminal biotin on a linker: ado-ado)", "values": [{"binder": "YNNCLEILRV", "note": "[DCAF7, P61962]", "pKd": "below the threshold"}]}, {"target": "T5, RAPGEF6, Q8TEU7", "T5 sequence (Q8TEU7 525-625, limits assumed, looked up)": "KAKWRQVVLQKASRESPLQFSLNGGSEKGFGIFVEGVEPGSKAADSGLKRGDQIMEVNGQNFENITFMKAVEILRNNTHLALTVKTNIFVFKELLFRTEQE", "assay": "holdup assay", "design": "key: below the threshold = too weak to quantify, mostly under pKd 3.1 to 4", "details": "plain residues with an end cap or a label only (N-terminal biotin on a linker: ado-ado)", "values": [{"binder": "YNNCLEILRV", "note": "[DCAF7, P61962]", "pKd": "below the threshold"}]}, {"target": "LDB3, O75112", "sequence (O75112 1-94)": "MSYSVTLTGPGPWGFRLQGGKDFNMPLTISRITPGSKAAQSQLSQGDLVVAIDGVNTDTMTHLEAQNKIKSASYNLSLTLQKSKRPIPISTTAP", "assay": "holdup assay", "design": "key: below the threshold = too weak to quantify, mostly under pKd 3.1 to 4", "details": "plain residues with an end cap or a label only (N-terminal biotin on a linker: ado-ado)", "values": [{"binder": "YNNCLEILRV", "note": "[DCAF7, P61962]", "pKd": "below the threshold"}]}, {"target": "T6, LIN7C, Q9NUP9", "T6 sequence (Q9NUP9 88-185, limits assumed, looked up)": "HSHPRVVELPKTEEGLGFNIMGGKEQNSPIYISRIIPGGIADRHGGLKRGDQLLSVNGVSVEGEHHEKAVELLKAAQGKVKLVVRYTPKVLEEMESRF", "assay": "holdup assay", "design": "key: below the threshold = too weak to quantify, mostly under pKd 3.1 to 4", "details": "plain residues with an end cap or a label only (N-terminal biotin on a linker: ado-ado)", "values": [{"binder": "YNNCLEILRV", "note": "[DCAF7, P61962]", "pKd": "below the threshold"}]}, {"target": "T7, ARHGAP21, Q5T5U3", "T7 sequence (Q5T5U3 45-169, limits assumed, looked up)": "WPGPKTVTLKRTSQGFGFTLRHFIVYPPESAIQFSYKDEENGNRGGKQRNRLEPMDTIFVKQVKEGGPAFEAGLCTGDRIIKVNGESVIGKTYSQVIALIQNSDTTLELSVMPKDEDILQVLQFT", "assay": "holdup assay", "design": "key: below the threshold = too weak to quantify, mostly under pKd 3.1 to 4", "details": "plain residues with an end cap or a label only (N-terminal biotin on a linker: ado-ado)", "values": [{"binder": "YNNCLEILRV", "note": "[DCAF7, P61962]", "pKd": "below the threshold"}]}, {"target": "FRMPD2_1, Q68DX3", "sequence (Q68DX3 770-861)": "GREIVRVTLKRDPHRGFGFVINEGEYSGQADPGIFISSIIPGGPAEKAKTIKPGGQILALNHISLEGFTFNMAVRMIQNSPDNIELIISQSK", "assay": "holdup assay", "design": "key: below the threshold = too weak to quantify, mostly under pKd 3.1 to 4", "details": "plain residues with an end cap or a label only (N-terminal biotin on a linker: ado-ado)", "values": [{"binder": "YNNCLEILRV", "note": "[DCAF7, P61962]", "pKd": "below the threshold"}]}, {"target": "T8, APBA1_1, Q02410", "T8 sequence (Q02410 651-752, limits assumed, looked up)": "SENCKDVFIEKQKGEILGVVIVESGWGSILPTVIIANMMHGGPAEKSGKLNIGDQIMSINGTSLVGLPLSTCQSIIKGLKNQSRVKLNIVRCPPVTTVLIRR", "assay": "holdup assay", "design": "key: below the threshold = too weak to quantify, mostly under pKd 3.1 to 4", "details": "plain residues with an end cap or a label only (N-terminal biotin on a linker: ado-ado)", "values": [{"binder": "YNNCLEILRV", "note": "[DCAF7, P61962]", "pKd": "below the threshold"}]}, {"target": "T9, FRMPD1, Q5SYB0", "T9 sequence (Q5SYB0 52-145, limits assumed, looked up)": "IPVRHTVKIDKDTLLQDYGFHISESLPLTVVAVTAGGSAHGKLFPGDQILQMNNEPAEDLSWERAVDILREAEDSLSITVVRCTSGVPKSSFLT", "assay": "holdup assay", "design": "key: below the threshold = too weak to quantify, mostly under pKd 3.1 to 4", "details": "plain residues with an end cap or a label only (N-terminal biotin on a linker: ado-ado)", "values": [{"binder": "YNNCLEILRV", "note": "[DCAF7, P61962]", "pKd": "below the threshold"}]}, {"target": "T10, DLG3_3, Q92796", "T10 sequence (Q92796 374-475, limits assumed, looked up)": "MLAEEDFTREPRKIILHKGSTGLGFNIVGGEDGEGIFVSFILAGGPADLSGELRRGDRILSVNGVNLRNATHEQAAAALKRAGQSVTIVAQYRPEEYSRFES", "assay": "holdup assay", "design": "key: below the threshold = too weak to quantify, mostly under pKd 3.1 to 4", "details": "plain residues with an end cap or a label only (N-terminal biotin on a linker: ado-ado)", "values": [{"binder": "YNNCLEILRV", "note": "[DCAF7, P61962]", "pKd": "below the threshold"}]}, {"target": "MAGI2_3, Q86UL8", "sequence (Q86UL8 600-682)": "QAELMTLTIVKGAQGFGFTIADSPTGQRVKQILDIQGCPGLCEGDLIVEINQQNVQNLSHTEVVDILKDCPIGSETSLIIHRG", "assay": "holdup assay", "design": "key: below the threshold = too weak to quantify, mostly under pKd 3.1 to 4", "details": "plain residues with an end cap or a label only (N-terminal biotin on a linker: ado-ado)", "values": [{"binder": "YNNCLEILRV", "note": "[DCAF7, P61962]", "pKd": "below the threshold"}]}, {"target": "NHERF4_1, Q86UT5-2", "sequence (Q86UT5 other isoform, or with tags, fused parts or gaps)": "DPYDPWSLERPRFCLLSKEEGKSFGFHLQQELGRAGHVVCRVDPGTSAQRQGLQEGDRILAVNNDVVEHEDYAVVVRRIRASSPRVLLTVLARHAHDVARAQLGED", "assay": "holdup assay", "design": "key: below the threshold = too weak to quantify, mostly under pKd 3.1 to 4", "details": "plain residues with an end cap or a label only (N-terminal biotin on a linker: ado-ado)", "values": [{"binder": "YNNCLEILRV", "note": "[DCAF7, P61962]", "pKd": "below the threshold"}]}, {"target": "AHNAK1, Q09666", "sequence (Q09666 4-100)": "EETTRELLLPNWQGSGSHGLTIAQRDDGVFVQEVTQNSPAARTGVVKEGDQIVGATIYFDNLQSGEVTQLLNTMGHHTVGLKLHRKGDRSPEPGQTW", "assay": "holdup assay", "design": "key: below the threshold = too weak to quantify, mostly under pKd 3.1 to 4", "details": "plain residues with an end cap or a label only (N-terminal biotin on a linker: ado-ado)", "values": [{"binder": "YNNCLEILRV", "note": "[DCAF7, P61962]", "pKd": "below the threshold"}]}, {"target": "T11, TJP3_3, O95049", "T11 sequence (O95049 375-456, limits assumed, looked up)": "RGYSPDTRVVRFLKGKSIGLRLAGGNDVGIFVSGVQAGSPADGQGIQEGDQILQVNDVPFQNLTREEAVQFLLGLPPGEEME", "assay": "holdup assay", "design": "key: below the threshold = too weak to quantify, mostly under pKd 3.1 to 4", "details": "plain residues with an end cap or a label only (N-terminal biotin on a linker: ado-ado)", "values": [{"binder": "YNNCLEILRV", "note": "[DCAF7, P61962]", "pKd": "below the threshold"}]}, {"target": "PARD3_3, Q8TEW0", "sequence (Q8TEW0 582-685)": "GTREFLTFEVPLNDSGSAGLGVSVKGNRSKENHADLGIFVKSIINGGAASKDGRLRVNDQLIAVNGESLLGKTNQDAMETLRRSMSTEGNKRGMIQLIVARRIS", "assay": "holdup assay", "design": "key: below the threshold = too weak to quantify, mostly under pKd 3.1 to 4", "details": "plain residues with an end cap or a label only (N-terminal biotin on a linker: ado-ado)", "values": [{"binder": "YNNCLEILRV", "note": "[DCAF7, P61962]", "pKd": 3.97}]}, {"target": "Inadl_8, Q8NI35", "sequence (Q8NI35 1425-1530)": "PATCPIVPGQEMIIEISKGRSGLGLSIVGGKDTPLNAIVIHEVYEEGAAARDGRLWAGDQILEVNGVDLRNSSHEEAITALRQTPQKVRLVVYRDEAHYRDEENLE", "assay": "holdup assay", "design": "key: below the threshold = too weak to quantify, mostly under pKd 3.1 to 4", "details": "plain residues with an end cap or a label only (N-terminal biotin on a linker: ado-ado)", "values": [{"binder": "YNNCLEILRV", "note": "[DCAF7, P61962]", "pKd": "below the threshold"}]}]}
